Reference: the DeepSol protein solubility set

Assay: soluble on expression in E. coli; label from the status in PepcDB or PDB records

Sequence | soluble on expression in E. coli
MGSDKIHHHHHHMLSRTADHLFWMSRYTERAENTARMLNVSYETSLLPQSADVAQESWLGLLSISELIPAYTARHGEVTREGVLEFMVRDGDNPSSILSCLRAARENARAVRGALTTEIWETQNQTWLELHRQLQGRDFERDPGAFFEWVKYRSHLSRGVTLGTMLQDEAFHFLRLGTFLERADNTARLLDVKFHAVQSDFHGSAMRERGRAAPQEFDFYHWSAILRSVSAFEVYRKVYRDVITPERVADLLMLRADMPRSLHASLREVADNLAVVANDQSAETQRKAGRLLADLRYGRIDEILATGLHAYLTQFLDRVNDLGAGISRDFLVPVPA | not soluble
MGSDKIHHHHHHMTTDSSNNRTISSKSTLSSKSIINVGPFTPHIEFIGQQQTPVIIIDDFGADLSQLIDIAIDDSQFNQDQGSYYPGQRAPLPKQYVIDVINAVYQLIYDTYKVPHSLRLKPQQCVFSVIDKPAQRLLPLQCMPHFDTPDPHYFAILHYLNNGDHGDTGFFRHNTTQYEQISPHNIDHYFNQAQPVVDAQQTLMPDYVVDSNDHYTLYHQVHYRPNRLVIYPGNLLHSTLVNPVTDIDSSPKTGRLTANIFINFK | not soluble
MSDDLSAFFAKKKDKKKKSAVKIEEVGQALERRAKRQEEYEQESEDVSEKRVEEEKAVNPNEESEWIEYGESQGRLDGLKIKDMGLESEQDQVNNEEPEDREVHETKTWGQVSSEKKATEEPEQAVTISDKAMAAAYKPPAMRRPGAPYRPRAAAANLDMGSDAAFPSLADASKIEKNKKEESKSPGGWVKAGSGGAWPGSSGPSSSGSSRSYPTTAGSGRDSALAALKMMSAANPAPARNEPAPAPAAAAPASSGAAKAGSYVPPHLRKNQ | not soluble
QTGVQTNTPFGSGEDSIRCRQNISLFTSYAKTGNYKDAYDFWEKAYEECPASTKNIYIYGVKISEWRLQNEQDPAKRQQIIDKILKLYDDRVKYFGEDPKYGTDYIMASKISDYMQYMGDKTDYDKVYEWIKPTIDQHGENATPRALFYYAYSSLNKAIRNEAWHETYIKDYTFASQAMEKQLEVADEKGKEFIQPLKTQIDELFAQSGLADCNTLVKMYGDKLEENKTDTTFLKNMLGMFHASDCETHPLYFQANK | not soluble
MGDIHFIGSAANFFRSSTSDDWVRFHTFAEETLKGSQSLIALQWLVKVEPPQAETFTARMQQRFPEFTLYTVPKTGEIKYGFGTDDQAKYVLSDIYPLNYDNRKLLGFYSERERFKRILADIVVNRRPNVSDKVRLLQDGIDKSIVKDGMLVYHPVFSSEDDRSLLGVMVGVVRLSTYFEKLVQISVMEQDLDMRVIDTGFDSEDSPVLYQSPMWRADDEPKIERKLVLPNRDWVLEFELHQPINHSEELEHHHHHH | not soluble
MQPLKRIRHPSGSEILFDAKWHQYKLGGTALRSVSKLLDRFFPFDEKRVLELVSKKTGQPVDKIKQGWSRQALLGKNVHEFIECKLLKKPPPTFTLLMKRKQAREAARPADATGPAAITTTPLEDEVLHGEEALYLPVAEMAVEKVLSTYDVLGAEQVIAAPGWGIAGTIDFMGRNRRTNRVLIGDWKTTGSVTSNFRFGSFETACPGALRHLPNSKMYRYAMQVTIYGEILAREQYFEKQFFDAQLRASLTASLAVPSTDVTPPAPPAKTRGRPSSRAAAPAKSDIGSDVESLLKTFYRNNTEQRFEYGIVQLAKGEDGGVVAEFKEVTPETVMPPDCPEMTFDSLLQRVMEGVGV | soluble
MTNAALDDKTIVRDYFNSTGFDRWRRIYGDGQVNFVQKDIRVGHQQTVDSVVAWLVADGNLPGLLVCDAGCGVGSLSIPLAQAGALVYGSDISEKMVGEAQQKAQEVLAYGNQPTFMTQDLAQLGGKYDTVICLDVLIHYPTEEASAMISHLASLADRRLILSFAPKTLGLTVLKKIGGLFPGPSKTTRAYQHKEADIRKILGDNGFSIARTGMTSTRFYYSRILEAVRSLEHHHHHH | not soluble
MGSDKIHHHHHHMKVFSERADKPHAYLFGEYTNPLGFDPVELALSEDGQAWQSIFDDPNLSNVYLVDFDWLPPVIADTYRTAGTRDGQQLANSRLDQRDIVLKFIAYCRGDADEKLTFQSLSNFLIRRHNYWVAFDNDGSRMYHVREKTITAEYYGDKMMMITVTLNNFTGVAQSIMPSAHINEMPNIGLGLPTDIVNYVFRTSEFDVNNIGELPVDPLVQGDYFDITLTGIGSPTIANTTTGDAITCTKSLTTGDTFKLIGVNPQINGQAAGINTDNGIIRLASGNNHFKITGCQDLNCTVNFYFKYLN | not soluble
MSGVASGKTAIKSTAKVLSFVVQKHWATRLHYDFRLELEGTMKSWAVPKGPSFDPNDKRMAVHVEDHPISYNSFEGEIPSGQYGAGKVIIWDKGTWIPLEDPHKGYRDGKLKFELRGLKLKGHWALVRMRKEENKKQEPWLLIKEKDEYVRSSREYSVVDEMPDSVAELEHHHHHH | not soluble
MGSDKIHHHHHHMCQRAIANIDISKEYDESMGSNDVHYQSFARMADFFGRDMQAHRHDQFFQMHFLDTGQIELQLDDHRYSVQAPLFVLTPPSVPHAFITESDSDGHVLTVREELVWPLLEVLYPGTREAFGLPGICLSLADKPNELAALKHYWQLIERESTEQLAGCEHTLVLLAQAVFTLLLRNAKLDDHAATGMRGELKLFQRFTLLIDNHFHQHWTVPDYACELHITESRLTDICRRFANRPPKRLIFDRQLREAKRLLLFSDNAVNEIAWQLGFKDPAYFARFFNRLAGCSPSQFRQREVPSFLN | not soluble
MAHHHHHHMAQAIRDAFTEEASLTVVEEWSSKVVSDLEARATNAHHARQGVLVKPYTADAAETVPVTIVASLREFQGQLYDIYRAAETIRTVIACRIPELKAEDNLGVEVQMTVLKMIDSLEGKLLGSSSGDKEGGAPGVAGMYAAREYLAARGSVEDKVLGKVSDDDKKTKSAAPSVLMELQQIDADALLKLELSATQISTQIRSFINAYAVNWKKLIQPRTNASEKSIS | soluble
MQVVSSATLPPTVASADLAIVGGRSSDEDVIKYSAIQTIKQEQQQQQQQQSNTALPSYNFPFFNGMQNDFPPNRMLYNDNTMQKSENDHFTGMNLSTSASSSGNSTSSKDQSRRQFYTESSNSSGNGAAATSGSNGSSSSTESKSDVFNISMNAFAATPGSKSEDHNIPSFNMLSSYYTGALKLSNSTSFANPDPYQILGPTSKNLAHSGSGQTQLWQFLLELLSDKRYSEVITWEGTQGEFKLVDPDEVARKWGERKSKPNMNYDKMSRALRYYYDKNIMAKVHGKRYAYKFDFQGIAQALQPPTASHPQDYFNSHAMGRIAPDFSSWTSANYRSLNIAGFNNGSTIFNPSVNYSAFGATGTSNNLSAARAFPLYR | not soluble
MTVLKLSHWRVLAELADGLPQHVSQLARMADMKPQQLNGFWQQMPAHIRGLLRQHDGYWRLVRPLAVFDAEGLRELGERSGFQTALKHECASSNDEILELARIAPDKAHKTICVTHLQSKGRGRQGRKWSHRLGECLMFSFGWVFDRPQYELGSLSPVAAVACRRALSRLGLDVQIKWPNDLVVGRDKLGGILIETVRTGGKTVAVVGIGINFVLPKEVENAASVQSLFQTASRRGNADAAVLLETLLVELDAVLLQYARDGFAPFVAEYQAANRDHGKAVLLLRDGETVFEGTVKGVDGQGVLHLETAEGKQTVVSGEISLRSDDRPVSVPKRRDSERFLLLDGGNSRLKWAWVENGTFATVGSAPYRDLSPLGAEWAEKADGNVRIVGCAVCGEFKKAQVQEQLARKIEWLPSSAQALGIRNHYRHPEEHGSDRWFNALGSRRFSRNACVVVSCGTAVTVDALTDDGHYLGGTIMPGFHLMKESLAVRTANLNRHAGKRYPFPTTTGNAVASGMMDAVCGSVMMMHGRLKEKTGAGKPVDVIITGGGAAKVAEALPPAFLAENTVRVADNLVIYGLLNMIAAEGREYEHI | not soluble
MEEKWCNYLLNEGRDWKTMNKTILKTCIISAVLGGVLLTEKNGEVKAEEITPQTNHTGVFKDVPKGHWAYEAIQQLTDEKIVFGYDDGRFGFGDNVTREQVAALLYRYFNLAEEKNYENPYGDVSEESTSYIKEILSLTEMGVFKGDEHGNFRPKASLTRAEMAQVLTNAFHLKAKSNHTFNDVSTNSWASNAISAVQTNNIAKGVGGGNFAPNMDVTREQYAQFLYNAIQETEKTQETKGQLLASILGETNWQGTKVYDKDHNDVTKENQNFIGLAKYDAKTARYEFFNASTGESRNDSGTFFITNDGKKRVLISETQNYQAVVELTQLDKEKFTYKRMGKDAKRNDVEVFVEHIPYQEKELSFTRPDKNLESSTGKIVTDVDGDKILSSTLWNGTVVLDEQGNNVTKYNSNLISLAKYDKNTNKYEFFNVNTGESRGDYGFFDVVHDNKIRAHVSLGNNKYGAVLELTELNKEKFTYTRMGKDANGKDIKIFVEHEPNTGDLKPNFTK | not soluble
MGSDKIHHHHHHMKRNESKYKQVVNHVIDGINNGSYKKGDWILSINEFRKNYNLSRDTVFAGLSELKSKGIIDSTPGVGYYIATTRIAQKLNIFLLFNEFNEFKEDLYNSFISSIRKTANVDLYFHNYNRKVFETLINEANYKYTTYILMPGKFTNIAPLLESLSGRVFLLDHFHPELAGKYSSVAQNFEKDTYEALVYGLPHLKKYDHIIMVQKEEKEPIERYNGLCAFCEEYHFTHEYTDSVRNREIRQGETFMVVNDRDLVDLLKQAQLQNFAPGKDFGIISYNDTPLKEILAGGITTLSTDFKQMGQTMASLITQKEIKTIENPWKLDIRNSL | not soluble
GLGGFTRTRNKGKSNVIDMIQKYIESKGMPIENWDITVGYCTNLEEAEKYRDDVEAQLGVKLLERREDFKTRISIISGCHTGPYALGIACIPKYTTIRL | not soluble
MGSDKIHHHHHHAQQTSEVDLIDIAGGMEKLTELKVSDLGKTIRYIPLETTDSCLIGDFPNIKLLDDKIMVYNGKQCLLFDKETGKFICSVGHRGDDPEAYSSTCGYLNPKNQLLYFNRDPNQLVKYNQKGNFAGVITIPSPETSTGNIQINRPGMNGFVFSDSIIIGHYVGGLGQRCPSSVLYFSDKGNYIDTIPNIIPELGTGQVGDINNISVRKGFGLLEGIIQIQYNNGKQSICVPGYTALWKCNDEIRFKELFTDTIYTLKHNQLEKYIIFNTGKYYWPASERTLTDNNSDRIMISYAIENDKLLYFQFIRGLYTDKHILYNGIYDKNTKVTNIALAENNFVDDLTHFMPFTPSFLNEKGECASLVQAADILTWLEEHPEVKIEKELGVLKNLNEESNPVVVLVK | not soluble
MPVITILGCRMFEDEIMHLLENDPEIEEVLVVENEDCVGIMKKMAEAGLAYTALSPEKIPEKSSETGKGLTLIVYMLELALHAIPENLKKTVYSKVELMSSCSDGILLFYGLCGNVLGKIEEDFKDLGCQVCILKEENGEIVDDCIGAVLGGRKQYLEVLKSCRGVGTFFLTPMWAVNWREMIRTSGLSQNPDDISMSKFVFDYAGYKRVARLDTGLAYEKDFDACVKEFSTLFEFEVTELEGTLHLIENCYAKTKASVFEACPRSQALEHHHHHH | soluble
MSLSNKSLTTGTAVDVLAGLPVKREASATGYSRTADFGAAWLDVDGNNCDTRNDILHRDLTDAVQRGGCKILSGTLNDKYSGESIHFVRGAKTSALVQVDHIVALKNAWVTGAQQLTQAQRVSFANDPLNLIAVDAHSNEQKSSGDAATWLPANKSSRCEYVARQISVKATYGLWVTPAEKSAMMDILADCSGQMAESSTFTEGHHHHHH | soluble
MGSDKIHHHHHHMNIKDLKYFYHLSQLQSFTKVAEKFQISQPSVSYSVKRLEEQFNCDLIVKDPSHRTFALTQQGNILKRHLERILPEISSAQKEMNRSLAHYSTLGCPPIIINYLLSLLKETNQDLAFLKRIRSIRGGSVELLEQLLQGDLDLSLIGTIEPFYHDELVIKKILHRKLYLIVSKDHLLAKRKKAIAFADVLKENFILLDEHNIHLKAFDYLNQTHQNQAQIFFKSDDVTLIKQMVSHNMGVSLLTDISLTKQDHHLVKIPFKENNKLGFYVNYAYLKSSTLTPDIRHLVDLLDKIAQSF | not soluble
